Source: publication PMC8930183, “Structure of the Pf12 and Pf41 heterodimeric complex of Plasmodium falciparum 6-cysteine proteins” (FEMS Microbes, 2022)

B1: Pf41 D1D2 (residues 21-368), untagged [Plasmodium falciparum] / octa-histidine tagged Pf12 D1D2 (residues 28-304) [Plasmodium falciparum] (parent complex)
chain 1: KSHKCDFTKEKYLLSGEKEVSCEIDANPSDDITFICPNKIDSLCFHTVNISKNINQNKSTMSIQDLLYGSVVYGNTLFISPYVRTNTPFYCFCNLDTVTIQKFLKINRFLKDDDELSEADVMKHLKGGNVSEAQADEYLNKALNRFKKMKDLSKFFNDQADNTTKLNLPKSLNIPNDILNYDVYNSSNNRNDIVVKDEVTNKQIISKRGIMSVFVRSNNNVIKGCDFGNNNKNYFSHPISVAGKVNNKVCKIQGKPGELVGFKCAFEENGKVEPPNCFDQVLHKNKVTDLKTLIPGYASYTNKHSSKYPYYLKIPHFVNEQYTIQCKCKSNNSQNEYTFELDIQPGES
chain 2: NLTCDFNDVYKLEFHPNQQTSVTKLCNLTPNVLEKVTIKCGSDKLNYNLYPPTCFEEVYASRNMMHLKKIKEFVIGSSMFMRRSLTPNKINEVSFRIPPNMMPEKPIYCFCENKKTITINGSNGNPSSKKDIINRGIVEIIIPSLNEKVKGCDFTTSESTIFSKGYSINEISNKSSNNQQDIVCTVKAHANDLIGFKCPSNYSVEPHDCFVSAFNLSGKNENLENKLKLTNIIMDHYNNTFYSRLPSLISDNWKFFCVCSKDNEKKLVFTVEASISS

Variants of: B1
Test: BLI; mutant at 1000 nM, 500 nM, and 250 nM; binding to immobilised WT Pf12; parent: 100; read off a plot

Point of comparison: chain 1 KSHKCDFTKEKYLLSGEKEVSCEIDANPSDDITFICPNKIDSLCFHTVNISKNINQNKSTMSIQDLLYGSVVYGNTLFISPYVRTNTPFYCFCNLDTVTIQKFLKINRFLKDDDELSEADVMKHLKGGNVSEAQADEYLNKAANRFKKMKDLSKFFNDQADNTTKLNLPKSLNIPNDILNYDVYNSSNNRNDIVVKDEVTNKQIISKRGIMSVFVRSNNNVIKGCDFGNNNKNYFSHPISVAGKVNNKVCKIQGKPGELVGFKCAFEENGKVEPPNCFDQVLHKNKVTDLKTLIPGYASYTNKHSSKYPYYLKIPHFVNEQYTIQCKCKSNNSQNEYTFELDIQPGES [chain 1 L143A], percent of parent ~1 % WT. Against it:
- chain 1 KSHKCDFTKEKYLLSGEKEVSCEIDANPSDDITFICPNKIDSLCFHTVNISKNINQNKSTMSIQDLLYGSVVYGNTLFISPYVRTNTPFYCFCNLDTVTIQKFLKINRFLKDDDELSEADVMKHLKGGNVSEAQADEYLNKALNRFKKMKDLSKFFNDQADNTTKLNLPKSLNIPNDILNYDVYNSSNNRNDIVVKDEVTNKQIISKRGIMSVFVRSNNNVIKGCDFGNNNKNYFSHPISVAGKVNNKVCKIQGKPGELVGFKCAFEENGKVEPPNCFDQVLHKNKVTDLKTLIPGYASYTNKHSSKYPYYLKIPHFVAEQYTIQCKCKSNNSQNEYTFELDIQPGES [chain 1 N319A] — higher, ~36 % WT
- chain 1 KSHKCDFTKEKYLLSGEKEVSCEIDANPSDDITFICPNKIDSLCFHTVNISKNINQNKSTMSIQDLLYGSVVYGNTLFISPYVRTNTPFYCFCNLDTVTIQKFLKINRFLKDDDELSEADVMKHLKGGNVSEAQADEYLNKALNRFKKMKDLSKFFNDQADNTTKLNLPKSLNIPNDILNYDVYNSSNNRNDIVVKDEVTNKQIISKRGIMSVFVRSNNNVIKGCDFGNNNKNYFSHPISVAGKVNNKVCKIQGKPGELVGFKCAFEENGKVEPPNCFDQVLHKNKVTDLKTLIPGYASYTNKHSSKYPYYLKIPHAVNEQYTIQCKCKSNNSQNEYTFELDIQPGES [chain 1 F317A] — the same, ~1 % WT
- chain 1 KSHKCDFTKEKYLLSGEKEVSCEIDANPSDDITFICPNKIDSLCFHTVNISKNINQNKSTMSIQDLLYGSVVYGNTLFISPYVRTNTPFYCFCNLDTVTIQKFLKINRFLKDDDELSEADVMKHLKGGNVSEAQADEYANKALNRFKKMKDLSKFFNDQADNTTKLNLPKSLNIPNDILNYDVYNSSNNRNDIVVKDEVTNKQIISKRGIMSVFVRSNNNVIKGCDFGNNNKNYFSHPISVAGKVNNKVCKIQGKPGELVGFKCAFEENGKVEPPNCFDQVLHKNKVTDLKTLIPGYASYTNKHSSKYPYYLKIPHFVNEQYTIQCKCKSNNSQNEYTFELDIQPGES [chain 1 L139A] — higher, ~4 % WT
- chain 1 KSHKCDFTKEKYLLSGEKEVSCEIDANPSDDITFICPNKIDSLCFHTVNISKNINQNKSTMSIQDLLYGSVVYGNTLFISPYVRTNTPFYCFCNLDTVTIQKFLKINRFLKDDDELSEADVMKHLKGGNVSEAQADEYLNKALNRFKKMKDLSKFFNDQADNTTKLNLPKSLNIPNDILNYDVYNSSNNRNDIVVKDEVTNKQIISKRGIMSVFVRSNNNVIKGCDFGNNNKNYFSHPISVAGKVNNKVCKIQGKPGELVGFKCAFEENGKVEPPNCFDQVLHKNKVTDLKTLIPGYASYTNKHSSKYPYYLKIPHFVNAQYTIQCKCKSNNSQNEYTFELDIQPGES [chain 1 E320A] — higher, ~103 % WT
- chain 1 KSHKCDFTKEKYLLSGEKEVSCEIDANPSDDITFICPNKIDSLCFHTVNISKNINQNKSTMSIQDLLYGSVVYGNTLFISPYVRTNTPFYCFCNLDTVTIQKFLKINRFLKDDDELSEADVMKHLKGGNVSEAQADEYLNKALNRFKKMKDLSKFFNDQADNTTKLNLPKSLNIPNDILNYDVYNSSNNRNDIVVKDEVTNKQIISKRGIMSVFVRSNNNVIKGCDFGNNNKNYFSHPISVAGKVNNKVCKIQGKPGELVGFKCAFEENGKVEPPNCFDQVLHKNKVTDLKTLIPGYASYTNKHSSKYPYYLKIPAFVNEQYTIQCKCKSNNSQNEYTFELDIQPGES [chain 1 H316A] — higher, ~75 % WT
- chain 1 KSHKCDFTKEKYLLSGEKEVSCEIDANPSDDITFICPNKIDSLCFHTVNISKNINQNKSTMSIQDLLYGSVVYGNTLFISPYVRTNTPFYCFCNLDTVTIQKFLKINRFLKDDDELSEADVMKHLKGGNVSEAQADEYLNKALNRFKKMKDLSKFFNDQADNTTKLNLPKSLNIPNDILNYDVYNSSNNRNDIVVKDEVTNKQIISKRGIMSVFVRSNNNVIKGCDFGNNNKNYFSHPISVAGKVNNKVCKIQGKPGELVGFKCAFEENGKVEPPNCFDQVLHKNKVTDLKTLIPGYASYTNKHSSKYPYYLKIPHFVNEQYTIQCKCKSNNSQNEYTFELDIQPGAS [chain 1 E347A] — higher, ~18 % WT
- chain 1 KSHKCDFTKEKYLLSGEKEVSCEIDANPSDDITFICPNKIDSLCFHTVNISKNINQNKSTMSIQDLLYGSVVYGNTLFISPYVRTNTPFYCFCNLDTVTIQKFLKINRFLKDDDELSEADVMKHLKGGNVSEAQADEYLNKALNRAKKMKDLSKFFNDQADNTTKLNLPKSLNIPNDILNYDVYNSSNNRNDIVVKDEVTNKQIISKRGIMSVFVRSNNNVIKGCDFGNNNKNYFSHPISVAGKVNNKVCKIQGKPGELVGFKCAFEENGKVEPPNCFDQVLHKNKVTDLKTLIPGYASYTNKHSSKYPYYLKIPHFVNEQYTIQCKCKSNNSQNEYTFELDIQPGES [chain 1 F146A] — higher, ~37 % WT
